This series deals with the molecule itself. The series can be described thus: crystal structure; PDC_(2.03) at 6 mg/mL in 20 mM Tris pH 7.5, 100 mM NaCl, 1 mM MgCl2, 0.5 mM DTT, 0.1 mM TPP; crystals grown in 0.1 M MES monohydrate pH 6.0, 2.4 M ammonium sulfate at 20 °C; two molecules in the asymmetric unit.

B1: PDC_(2.03), computationally designed thermostable variant of Zymomonas mobilis pyruvate decarboxylase (enzyme)
chain: MDYTVGTYLAERLVQIGLKHHFAVAGDYNLVLLDNLLDNKNMEQVYCCNELNCGFSAEGYARAKGAAAAVVTYSVGALSAFDAIGGAYAENLPVILISGAPNNNDHAAAHVLHHALGKTDYHYQLEMAKNITAAAEAIYTPEEAPAKIDHVIKTALREKKPVYLEIACNIASMPCAAPGPASALFNDEASDEASLNAAVEETLKFIENRDKVAVLVGSKLRAAAAEEAAVKFADALGGAVATMAAAKSFFPEENPHYIGTSWGEVSYPGVEKTMKEADAVIALAPVFNDYSTTGWTDIPDPKKLVLAEPRSVVVNGIRFPSVHLKDYLTRLAEKVSKKTGALDFFKSLNAGELKKADPADPSAPLVNAEIARQIEDLLTPNTTVIAETGDSWFNAQRMKLPNGARVEYEMQWGHIGWSVPAAFGYAVGAPERRNILMVGDGSFQLTAQEVAQMVRLKLPVIIFLINNYGYTIEVMIHDGPYNNIKNWDYAALMEVFNGNGGYDSGAGKGLKAKTAAELEEAIKVALDNTDGPTLIECFIAREDCTEELVKWGERVAAANSRKPVNKLL
notes: the wild-type structures 2WVA and 2WVG served as design template and search model; Crystallised with thiamine pyrophosphate (TPP) and Mg2+; the asymmetric unit of 5TMA holds two molecules; also called variant 2.03; source: E. coli BL21 (DE3), purified (HisPur Cobalt column, Superdex 200 size-exclusion chromatography)
As to B1, the binding result is on record as “binds”.

(Values after publication PMC6036693, “An iterative computational design approach to increase the thermal endurance of a mesophilic enzyme” (Biotechnology for Biofuels, 2018).)
